In patent publication US6699677B1, “Tethered ligands and methods of use” (ChemoCentryx, Inc., priority 1999, dated 2004):

T1: CCR4 (Homo sapiens, UniProt P51679)
T1 sequence (P51679 1-360): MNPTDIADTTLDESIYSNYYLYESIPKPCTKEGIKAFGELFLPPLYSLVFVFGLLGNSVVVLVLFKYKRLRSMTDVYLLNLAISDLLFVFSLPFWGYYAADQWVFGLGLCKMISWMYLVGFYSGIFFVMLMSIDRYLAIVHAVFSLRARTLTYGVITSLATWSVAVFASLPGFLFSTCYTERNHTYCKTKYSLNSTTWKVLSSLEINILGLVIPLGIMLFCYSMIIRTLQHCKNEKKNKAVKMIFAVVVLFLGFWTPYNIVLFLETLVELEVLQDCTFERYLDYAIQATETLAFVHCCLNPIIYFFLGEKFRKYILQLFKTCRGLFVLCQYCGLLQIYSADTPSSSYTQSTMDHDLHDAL

B1: MDC: recombinant human chemokine, natural ligand for CCR4 (protein)
chain: GPYGANMEDSVCCRDYVRYRLPLRVVKHFYWTSDSCPRPGVVLLTFRDKEICADPRVPWVKMILNKLSQ
B2: MDC-FRAC: a stalkokine with a fractalkine stalk and an MDC ligand domain (protein)
chain: GPYGANMEDSVCCRDYVRYRLPLRVVKHFYWTSDSCPRPGVVLLTFRDKEICADPRVPWVKMILNKLSQEFGGTFEKQIGEVKPRTTPAAGGMDESVVLEPEATGESSSLEPTPSSQEAQRALGTSPELPTGVTGSSGTRLPPTPKAQDGGPVGTELFRVPPVSTAATWQSSAPHQPGPSLWAEAKTSEAPSTQDPSTQASTASSPAPEENAPSEGQRVWGQGQSPRPENSLEREEMGPVPAHTDAFQDWGPGSMAHVSVVPVSSEGTPSREPVASGSWTPKAEEPIHATMDPQRLGVLITPVPDAQA
modifications: left off: small tags and cut ends
notes: a stalkokine with a fractalkine stalk and an MDC ligand domain
B3: TARC-FRAC: a stalkokine with a fractalkine stalk and an TARC ligand domain (protein)
chain: ARGTNVGRECCLEYFKGAIPLRKLKTWYQTSEDCSRDAIVFVTVQGRAICSDPNNKRVKNAVKYLQSLERSEFGGTFEKQIGEVKPRTTPAAGGMDESVVLEPEATGESSSLEPTPSSQEAQRALGTSPELPTGVTGSSGTRLPPTPKAQDGGPVGTELFRVPPVSTAATWQSSAPHQPGPSLWAEAKTSEAPSTQDPSTQASTASSPAPEENAPSEGQRVWGQGQSPRPENSLEREEMGPVPAHTDAFQDWGPGSMAHVSVVPVSSEGTPSREPVASGSWTPKAEEPIHATMDPQRLGVLITPVPDAQA
modifications: left off: small tags and cut ends
notes: a stalkokine with a fractalkine stalk and an TARC ligand domain

How the values were obtained:
CCR4 [1] = molecular target: T1, CCR4; experiment: Binding of CCR4-NSO cells to immobilized stalkokines and competition by soluble chemokine; set-up: host or cells: mouse myeloma NSO
Description: Following, the liquid in each well was aspirated and washed once for approximately 5 minutes with 500 ul of PBS. The wells were then “blocked” (blocked for any additional protein binding sites) with the addition of 250 ul of blocking solution (2% fetal bovine serum, 0.5% BSA in PBS) and incubation for 1 hour at room temp (e.g., 20° C.). […] Each slide contained two wells with control supernatant (from mock-transfected cells) and two wells with the positive control SDF1a (which binds the ubiquitous chemokine receptor CXCR4). The four other wells were for experimental samples. The supernatants were incubated for one hour at room temperature (typically 20° C.), then incubated for an additional hour at 37° C. The supernatants were aspirated off, and each well was washed once for 5 minutes with 500 ul of PBS. The slide was then ready for addition of cells for assay.
Several types of cells were used in binding experiments to stalkokines of the invention, including transfected mouse myeloma NSO cells containing a mammalian expression vector driving expression of the receptor of interest, e.g., CCR1, CCR4, CCR6, CCR7, CCR8, CXCR4, CMV US28 (gift of R&D Systems (Minneapolis, Minn.)).
In an experiment, CCR4-NSO cells were used to test binding competition. Harvested CCR4 NSO cells were resuspended at 2×10^6 cells per ml in PBS. […] 250 ul of cells that were not pre-treated with soluble chemokine were added to additional wells. The slides were incubated for 1.5 hours at room temp, then the supernatant gently aspirated. The chamber portion of the slide was removed (using the apparatus provided by the supplier) and the slide was washed by gentle immersion into a petri dish containing PBS to a depth of 1cm. This was repeated 3 times in total, and the slide was immersed in a 1% glutaraldehyde solution (in PBS) for 5 minutes at room temperature. The cells were inspected and enumerated visually by microscopy.

CCR4 [2] = molecular target: T1, CCR4; experiment: Displacement of radiolabeled MDC or TARC tracer from CEM cells expressing CCR4; type: binding; set-up: endogenous in cells; host or cells: CEM cells; settings: supernatants with soluble stalkokine, compared with control supernatant
Description: Briefly, CEM cells we added to radiolabeled chemokine “tracer” (MDC or TARC) in the presence of competitor molecules such as supernatants expressing the soluble MDC-FRAC (a stalkokine with a fractalkine stalk and an MDC ligand domain) or TARC-FRAC (a stalkokine with a fractalkine stalk and an TARC ligand domain). The cells and tracer were incubated and harvested by filtration, capturing the bound tracer. The material was then counted. “Total” is the amount of tracer bound with no competition.

CCR4 [3] = molecular target: T1, CCR4; experiment: Calcium mobilization in INDO-1AM loaded CEM cells expressing CCR4; type: cell-based; set-up: endogenous in cells; host or cells: CEM cells; settings: fusion protein supernatant added at 80 sec
Description: Briefly, CEM cells that express CCR4 were placed in a fluorimeter and monitored over time for changes in fluorescence. […] TARC-Fractalkine or MDC-Fractalkine (fusion protein supernatants), or control supernatants, were added at the following times: experiment 1, control supernatant added at 50 sec, TARK-FRAC at 80 sec; experiment 2, control supernatant at 50 sec and MDC-FRAC at 80 sec.

Molecule	Binding to Stalkokine form (CCR4 [1])	Inhibition of binding of MDC or TARC tracer to CEM cells (CCR4 [2])	Calcium influx / calcium signaling (CCR4 [3])	Calcium influx / calcium signaling (CCR4 [3]; listed as MDC-Stalkokine)	Calcium influx / calcium signaling (CCR4 [3]; listed as TARC-Stalkokine)
B1	yes, yes	maximal level of competition	–	–	–
B2	bound	significant further decrease	modest influx	induction of calcium signaling	–
B3	bound	significant further decrease	modest influx	–	induction of calcium signaling
